From paper PMC4975651 (Molecular cell, 2016)

Target: ZMYND8-PBP (93-426aa) (human)
Assay: ITC

B1: H3K4me1K14ac peptide (peptide)
chain: ARTKQTARKSTGGKA
modifications: monomethyl-lysine at K4; acetyl-lysine at K14
Kd: ~5.4 µM
